Residue numbers refer to the chain shown, from its start. Names may count otherwise.
B1: FIC-1_(134-508) E274G/I298D (domain or fragment, C. elegans, UniProt Q23544 134-508, looked up)
chain: DEKRENDPAKVKEAILAAKAAGRSRKDGNLERAMTIMEHAMALAPTNPQILIEMGQIREMHNELVEADQCYVKALAYDPGNSEALVLRARTTPLVSAIDRKMLRSVHDLRDEFNHLQHSTALRRMMRETYFLYVYHTVAIGGNTLSLGQTRAILESGMVIPGKSDREHNEVIGMDAALRFLNCSLLSKEHDEISIDDILEMHRRVLGNADPVEAGRIRTTQVYVGRFTPVSPEYVMEQLKDIVDWLNDESTLTIDPIERAAIAHYKLVLVHPFTDGNGRTARLLLNLIMMRSGFPPVILPVETRAEYYASLHVANLGDLRPFVRYVAKHSEASIQRYIGAMKTSSDNILNSGDSKLTPEESEVSEKIEAECRAGN
B2: FIC-1_(134-508) (domain or fragment, C. elegans, UniProt Q23544 134-508, looked up)
chain: B1 chain with G141E, D165I
notes: C. elegans Fic protein FIC-1, residues 134-508; transmembrane helix and membrane proximal domain excluded; also called FIC-1 wild type; FIC-1 wildtype (wt); source: E. coli LOBSTR-RIL(DE3), purified (Ni-Sepharose, size-exclusion chromatography); not shown: His6, N-terminal, kept
B3: FIC-1_(134-508) E274G (domain or fragment, C. elegans, UniProt Q23544 134-508, looked up)
chain: B1 chain with D165I
notes: C. elegans Fic protein FIC-1, residues 134-508, constitutively active mutant; transmembrane helix and membrane proximal domain excluded; Non-cleavable N-terminal 6x His tag; also called FIC-1 E274G; source: E. coli LOBSTR-RIL(DE3), purified (Ni-Sepharose, size-exclusion chromatography); not shown: His6, N-terminal, kept

How the values were obtained:
[1] = target: the molecule itself; assay: cell-based or functional assay
[2] = target: the molecule itself; assay: crystal structure; hanging drop vapor diffusion, 18°C, 0.1 M MES pH 6.5, 1.1 M ammonium sulfate; two molecules in the asymmetric unit

Protein | self-AMPylation of FIC-1 E274G/I298D relative to FIC-1 E274G (in vitro AMPylation with α33P-ATP, autoradiography) [1] [%] | target (histone H3) AMPylation by FIC-1 E274G/I298D relative to FIC-1 E274G (in vitro AMPylation with α33P-ATP, autoradiography) [1] [%] | binding result [2]
B1 | 46 | 11 | 
B2 |  |  | binds
B3 |  |  | binds
